Series [1] addresses CdaA_(103–285), truncated S. mitis CdaA-type diadenylate cyclase (SM12261_1351) lacking the transmembrane helices (Streptococcus mitis CCUG 31611). The series is described as follows: SEC; Superose 6 Increase 10/300 GL on an ÄKTA Pure 25; SEC buffer 1x PBS pH 7.4 with 10% glycerol; apparent molecular weight from vE/v0 against gel filtration markers (12,000-200,000 Da). On the technique in general: Size exclusion chromatography separates by hydrodynamic size, large species first.

Series [2] deals with Nc1ncnc2c1ncn2[C@@H]1O[C@H](COP(=O)(O)O[C@H]2[C@@H](O)[C@H](n3cnc4c(N)ncnc43)O[C@@H]2COP(=O)(O)O)[C@@H](O)[C@H]1O. The series is described as follows: purified protein. To be noted: 1 mM MnCl2, 50 mM Tris-HCl pH 7.5, 37 °C, 5 μM enzyme, product AMP.
The subject of series [3] is [H][C@@]1(O)[C@]2([H])OP(=O)(O)OC[C@@]3([H])O[C@@]([H])(n4cnc5c(N)ncnc54)[C@]([H])(O)[C@]3([H])OP(=O)(O)OC[C@@]2([H])O[C@@]1([H])n1cnc2c(N)ncnc21. The experiment in a line: purified protein. Conditions: 1 mM MnCl2, 50 mM Tris-HCl pH 7.5, 37 °C, 2.5 μM enzyme, product pApA.
Series [4] concerns the target Pde2, full-length S. mitis DhhP-type phosphodiesterase (SM12261_1122) (Streptococcus mitis CCUG 31611). The series is described as follows: SEC; Superose 6 Increase 10/300 GL on an ÄKTA Pure 25; SEC buffer 1x PBS pH 7.4 with 10% glycerol; apparent molecular weight from vE/v0 against gel filtration markers (12,000-200,000 Da).
Substrate in series [5]: Nc1ncnc2c1ncn2[C@@H]1O[C@H](COP(=O)(O)O[C@H]2[C@@H](O)[C@H](n3cnc4c(N)ncnc43)O[C@@H]2COP(=O)(O)O)[C@@H](O)[C@H]1O
The series is described as follows: AMP formation, reversed-phase HPLC, Michaelis-Menten fit. The format is biochemical, Streptococcus mitis. Conditions: 1 mM MnCl2, 50 mM Tris-HCl pH 8.5, 37 °C, 0.05 μM enzyme, product AMP. The source says:
(§1) AMP formation, reversed-phase HPLC, Michaelis-Menten fit on Pde2

Substrate in series [6]: [H][C@@]1(O)[C@]2([H])OP(=O)(O)OC[C@@]3([H])O[C@@]([H])(n4cnc5c(N)ncnc54)[C@]([H])(O)[C@]3([H])OP(=O)(O)OC[C@@]2([H])O[C@@]1([H])n1cnc2c(N)ncnc21
The description is as above. The format is biochemical, Streptococcus mitis. To be noted: 1 mM MnCl2, 50 mM Tris-HCl pH 8.5, 37 °C, 10 μM enzyme, product AMP.
Description: as §1

This note sets out measurements from paper PMC7570391, “Cyclic Di-adenosine Monophosphate Regulates Metabolism and Growth in the Oral Commensal Streptococcus mitis” (Microorganisms, 2020).

As a reminder, the stoichiometry N is a count of units in the complex or per binding partner. Regarding “CdaA_(103–285), truncated S. mitis CdaA-type diadenylate cyclase (SM12261_1351) lacking the transmembrane helices (domain or fragment)”, the stoichiometry N in series [1] was found to be 2.

A word on the Km: it is the concentration of substrate that gives half-maximal velocity. A word on the Vmax: it is the top rate of the reaction or transport when substrate is in excess. One may read the kcat as the number of substrate molecules converted per active site and unit of time at saturation. By kcat/Km is commonly meant the turnover number divided by the Michaelis constant. Consider “Pde1_53–657 (Streptococcus mitis NCTC 12261)”, for which, in series [2], the Michaelis constant (Km) turned out to be 152.4 ± 03.6 µM, the Vmax turned out to be 748 µM/min, the kcat was 2.49 ± 0.61 s⁻¹ and the kcat/Km came out at 16400 M⁻¹ s⁻¹. In series [3], the Km was 241.3 ± 11.6 µM, the maximal velocity (Vmax) was 621 µM/min, the kcat was determined as 4.14 ± 1.99 s⁻¹ and the catalytic efficiency (kcat/Km) amounted to 17000 M⁻¹ s⁻¹.

Consider “Pde2, full-length S. mitis DhhP-type phosphodiesterase (SM12261_1122) (enzyme)”, for which the stoichiometry N in series [4] came out at 2.

B1: Pde2 (Streptococcus mitis NCTC 12261) (protein)
chain: MDICHQILEKIKEYDTIIIHRHMKPDPDALGSQVGLKALLKHHFPEKTIKAVGFDEPTLTWMAEMDLVEDSAYQGALVIVCDTANTARIDDKRYSQGDFLIKIDHHPNDDVYGDLSWVDTSSSSASEMITLFAQTTQLALSDRAAELLFAGIIGDTGRFLYPSTTERTLRLAAYLREHNFDFAALTRKMDTMSYKIAKLQGYIYDHLEVDENGAARVILSQEILKRFNVTDAETAAIVGAPGRIDSVSLWGIFVEQADGHYRVRLRSKIHPINEIAKEHDGGGHPLASGANSYSLEENEIIYQKLKNLLKN
B1: in series [5], the Km stood at 877 ± 312 µM, the maximum rate (Vmax) turned out to be 10600 µM/min, the kcat is 3530 ± 623 s⁻¹ and the kcat/Km came to 4.02e+06 M⁻¹ s⁻¹. Besides, in series [6], the Km was determined as 148.5 ± 34.8 µM, the maximum rate (Vmax) was found to be 46.8 µM/min, the kcat was determined as 0.078 ± 0.005 s⁻¹ and the catalytic efficiency (kcat/Km) was 525 M⁻¹ s⁻¹.
